assay: yeast display, Sf9 membrane polyspecificity reagent, FACS + sequencing; frameworks hold sequencing errors
Summary of the method: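 Nanobodies came from a synthetic yeast display library in Saccharomyces cerevisiae BJ5465, induced with galactose for 36–48 hours and stained for 1 hour at 4 °C with 10% biotinylated, detergent-solubilized Sf9 membrane reagent. Cells were enriched on streptavidin microbeads and then FACS-sorted, with low and high (top ~1%) gates set on anti-HA fluorescence for expression and streptavidin fluorescence for reagent binding. Each polyreactivity label reflects the gate a clone came from. Genes were amplified by colony PCR, sequenced by MiSeq 2 × 250 and filtered by CDR length.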

Sequence | polyreactivity (PSR sort gate)
QVQLVESGGGLVQAGGSLRLSCAASGRIFSYYAMGWYRQAPGKERELVAAISKGGTSTYYADSVKGRFTISRDNSKNTVYLQMNRLKPEDTAVYYCAAARPKPVDYLGQGTQVTVSS | high polyreactivity
QVQLVESGGGLVQAGGSLRLSCAASGRIFSYYAMGWYRQAPGKERELVASISTSSGSTYYADSVKGRFTISRDNAKNTVYLQMNSLKPEDTAVYYCNADYTGYYRWRNDDYWGQGTQVTVSS | high polyreactivity
QVQLVESGGGLVQAGGSLRLSCAASGRIFSYYAMGWYRQAPGKERELVASITSGGSTYADSVKGRFTISRDNAKNTVYLQMNSLKPEDTAVYYCNARKRHYYGYYYWGQGTQVTVSS | high polyreactivity
QVQLVESGGGLVQAGGSLRLSCAASGRIFSYYTMGWYRQAPGKEREMVAAITWNGGSTYYADSVKGRFTISRDNAKNTVYLQMNSLKPEDTGVYYCNRDVRYVGPSGFDYWGQGTQVTVSS | high polyreactivity
QVQLVESGGGLVQAGGSLRLSCAASGRIFSYYTMGWYRQAPGTERELVAAITWGGGSTSYADSVKGRFTISRDNAKNTVYLQMNSLKPEDTAVYYCAESPGANRMDYWGQGTQVTVSS | low polyreactivity
QVQLVESGGGLVQAGGSLRLSCAASGRIFSYYTMGWYRQEPRKERELVATITSGVNTNYADSVKGRFTISRDNAKNTVYLQMNSLKPEDTAVFYCIARGTAERDYWGQGTQVTVSS | high polyreactivity
QVQLVESGGGLVQAGGSLRLSCAASGRIFSYYVMGWSRQAPGKERELVAAISYRGGGTYYADSVKGRFTISRDNAKNTVYLQMNSLKPEDTAVYYCNADTYSNTYRAYDYWGQGTQVTVSS | low polyreactivity
QVQLVESGGGLVQAGGSLRLSCAASGRIFTANAMGWYRQAPGKERELVAAISWRGGSTYYADSVKGRFTISRDNAKNTVYLQMNSLKPEDTAVYYCNKVGATWRQWFGYWGQGTQVTVSS | high polyreactivity
QVQLVESGGGLVQAGGSLRLSCAASGRIFTAYTMGWYRQAPGKERELVAAISTSGTSTYYADSVKGRFTISRDNAKNTVYLQMHSLKPEDTAVYYCATDYYYYPHSQYDYWGQGTQVTVSS | low polyreactivity
QVQLVESGGGLVQAGGSLRLSCAASGRIFTEYVMGWYRQAPGKERELVAAAITRGGSTNYADSVKGRFTISRDNAKNTVYLQMNSLKPEDTAVYYCNKDDWPVSRQLYTGKYDSWGQGTQVTVSS | low polyreactivity
QVQLVESGGGLVQAGGSLRLSCAASGRIFTGNALGWYRPAPGKERELVAGISTSGGSTYYADSVKGRFTISRDNAKNTVYLQMNSLKPEDTAVYYCAADWYYRRSYRRMNYWGQGTQVTVSS | high polyreactivity
QVQLVESGGGLVQAGGSLRLSCAASGRIFTGNTMGWYRQAPGKERELVATINSNGGSTYYADSVKGRFTISRDNAKNTVYLQMNSLKPEDTAVYYCAVVRNYVSRYRFYYWGQGTQVTVSS | high polyreactivity
QVQLVESGGGLVQAGGSLRLSCAASGRIFTGNVMGWYRQAPGKERELVAAITYRGGSTYYADSVKGRFTISRDNAKNTVYLQMNSLKPEDTAVYYCAAGYFLGHTYGGDYWGQGTQVTVSS | low polyreactivity
QVQLVESGGGLVQAGGSLRLSCAASGRIFTGYAMGWSRQAPGKERELVASITWRGGSTSYADSVKGRFTISRDNAKNTVYLQMNRLKPEDTAVYYCAAQKWYYPYYWGQGTQVTVSS | high polyreactivity
QVQLVESGGGLVQAGGSLRLSCAASGRIFTGYAMGWYRQAPGKERELVAAINSGGRTNYADSVKGRFTISRDNAKNTVYLQMNSLKPEDTAVYYCAARYTNYGGYYWGQGTQVTVSS | high polyreactivity
QVQLVESGGGLVQAGGSLRLSCAASGRIFTGYAMGWYRQAPGKERELVAAISRGGSTNYADSVKGRFTISRDNAKNTVFLQMNSLKPEDTAVYYCAAGVHWDRGDYWGQGTQVTVSS | low polyreactivity

Sequence | polyreactivity (PSR sort gate)
QVQLVESGGGLVQAGGSLRLSCAASGRIFTHNAMGWYRQAHGKERELVAAISFSGVSTYYADSVKGRFTISRDNAKNTVYLQMNSLKPEDTAVYYCARRYWYPDAFYRYDYWGQGTQVTVSS | low polyreactivity
QVQLVESGGGLVQAGGSLRLSCAASGRIFTHNAMGWYRQAHGKERELVAAISYSGVSTYYADSVKGRFTISRDNAKNTVYLQMNSLIPEDTAVYYCARRYWYPDAFYRYDYWGQGTQGTVSS | low polyreactivity
QVQLVESGGGLVQAGGSLRLSCAASGRIFTHNAMGWYRQAPGKERELVAAITIGGRTNYADSVKGRFTISRDNAKNTVYLQMNSLKPEDTAVYYCARRYGTWNAYDYWGQGTQVTVSS | low polyreactivity
QVQLVESGGGLVQAGGSLRLSCAASGRIFTHYAMGWYRQAPGKERELVAAISRTGGTTNYADSVKGRFTISRDNAKNTVYLQMNSLKPEDTAVYYCAAVGKGAKDYFKYYSLGQGTQVTVSS | high polyreactivity
QVQLVESGGGLVQAGGSLRLSCAASGRIFTINAMGWYRQAPGKERELVAAISNSGGRTYADSVKGRFTISRDNAKNTVYLLMNSLKAEDTAVYYCAKRYRFHFWGQGTQVTVSS | low polyreactivity
QVQLVESGGGLVQAGGSLRLSCAASGRIFTIYAMGLYRQEPGKERELVASITWRGGRTYYADSVKGRFTISRDNAKNTVYLQMNSLKPEDTAVYYCAAEFYRWGSLSFSYDYWGQGTQVTVSS | low polyreactivity
QVQLVESGGGLVQAGGSLRLSCAASGRIFTKNAMGWYRQAPGKERELVAAISWSTSRTYYADSVKGRFTISRDNAKNTVYLQMNSLKPEDTAVYYCAAVYRLRGAFSRGYWGQGTQVTVSS | high polyreactivity
QVQLVESGGGLVQAGGSLRLSCAASGRIFTKYAMGWYRQAPGKERELVAAISGSGGPTYYADSVKGRFTISRDNAKNTVYLQINSLKPEDTAVYYCGVPEIFDPKYQNDYWGQGTQVTVSS | low polyreactivity
QVQLVESGGGLVQAGGSLRLSCAASGRIFTKYAMGWYRQAPGKERELVAGISSSGGSTYYADSVKGRFTISRDIAKNTVYLQMNSLKPEDTAVYYCAARGYYKYDYWGQGTQVTVSS | high polyreactivity
QVQLVESGGGLVQAGGSLRLSCAASGRIFTKYAMGWYRQSPGKERELVAAITTSGGSTYYADSVKGRFTISRDNAKNTVYLQMNSLKPEDTAVYYCAARTYHRYDYWGQGTQVTVSS | high polyreactivity
QVQLVESGGGLVQAGGSLRLSCAASGRIFTNNAMGWYREAPGKERELVAAISKRGGSTYYADSVKGRFTISRDNAKNTVYLQMNSLKPEDTAVYYCNAREYIHWRGALGLFGSWGQGTQVTVSS | high polyreactivity
QVQLVESGGGLVQAGGSLRLSCAASGRIFTPNAMGWYRQAPGKERELVAAITWSGDNTYADSVKGRFTISRDNAKNTVYLQMNSLKPEDTAVYYCAAAYGYGHKKYGYWGQGTQVTVSS | low polyreactivity
QVQLVESGGGLVQAGGSLRLSCAASGRIFTPNAMGWYRQPPGKERELVAAITWSGDNTYADSVKGRFTISRDNAKNTVYLQMNILKPEDTAVYYCAAAYGYGHKKYGYWGQGTQVTVSS | low polyreactivity
QVQLVESGGGLVQAGGSLRLSCAASGRIFTPYVMGWYIQAPGKERELVADINLSGDSTSYADSVKGRFTISRDNAKNTVYLQMNSLKPEDTAVYYCAADFWLVSFQWDFEYDYWGQGTHVTVSS | low polyreactivity
QVQLVESGGGLVQAGGSLRLSCAASGRIFTRYAMGWYRQAPGKERELVATITKSGGSTYYADSVKGRFTISRDNAKNTVSLQMNSQKPDDTAVYYCAADSWWTYQYDYWGQGTQVTVSS | low polyreactivity
QVQLVESGGGLVQAGGSLRLSCAASGRIFTRYAMGWYRQAPGKERELVAVITRSGGSTYYADSVKGRFTISRDNAKNTVYLQMNSLKPEDTAVYYCNVDETGVLVAYSFDYWGQGTQVTVSS | low polyreactivity

Source: the nanobody polyreactivity screen of Harvey et al. (2022)
